Assays:
[1] = target: T1, HCV 1a E2 with alanine substitution at 429 (hepatitis C virus genotype 1a, H77c, UniProt P27958 384-746); assay: alanine-substitution ELISA
[2] = target: T2, HCV 1a E2 with alanine substitution at 442 (hepatitis C virus genotype 1a, H77c, UniProt P27958 384-746); assay: alanine-substitution ELISA
[3] = target: T3, HCV 1a E2 with alanine substitution at 443 (hepatitis C virus genotype 1a, H77c, UniProt P27958 384-746); assay: alanine-substitution ELISA
[4] = target: HCV 1a E2 with alanine substitution at 616 (hepatitis C virus genotype 1a, H77c, UniProt P27958 384-746); assay: alanine-substitution ELISA
[5] = target: HCV 1a E2 with alanine substitution at 420 (hepatitis C virus genotype 1a, H77c, UniProt P27958 384-746); assay: alanine-substitution ELISA, antibody 2 ug/ml
[6] = target: HCV 1a E2 with alanine substitution at 428 (hepatitis C virus genotype 1a, H77c, UniProt P27958 384-746); assay: alanine-substitution ELISA, antibody 2 ug/ml
[7] = target: HCV 1a E2 with alanine substitution at 437 (hepatitis C virus genotype 1a, H77c, UniProt P27958 384-746); assay: alanine-substitution ELISA, antibody 2 ug/ml
[8] = target: T4, HCV 1a E2 with alanine substitution at 441 (hepatitis C virus genotype 1a, H77c, UniProt P27958 384-746); assay: alanine-substitution ELISA, antibody 2 ug/ml
[9] = target: T1, HCV 1a E2 with alanine substitution at …; assay: alanine-substitution ELISA, antibody 2 ug/ml
[10] = target: T2, HCV 1a E2 with alanine substitution at …; assay: alanine-substitution ELISA, antibody 2 ug/ml
[11] = target: T3, HCV 1a E2 with alanine substitution at …; assay: alanine-substitution ELISA, antibody 2 ug/ml
[12] = target: T1, HCV 1a E2 with alanine substitution at …; assay: alanine-substitution ELISA; row marked *: tested at 0.2 ug/ml
[13] = target: T4, HCV 1a E2 with alanine substitution at …; assay: as above
[14] = target: T2, HCV 1a E2 with alanine substitution at …; assay: as above
[15] = target: T3, HCV 1a E2 with alanine substitution at …; assay: as above
[16] = target: HCV 1a E2 with alanine substitution at 613 (hepatitis C virus genotype 1a, H77c, UniProt P27958 384-746); assay: alanine-substitution ELISA, antibody 2 ug/ml

B1: HC-84.22 (antibody, V domains shown)
VH: EVQLVQSGAEVKKPGSSVKVSCKASGDTFSSYSIHWVRQAPGQGLEWMGRIIPIVGLVDYAQMFQGRVTISADRSTNTVYMDLSNLRSEDTAIYYCARSLGCPNGVCHGPRAADYFDYWGQGTLVTVSS
VL: EMTLTQSPSSLSASVGDRVTITCRASQSISSWLAWYQQKPGKAPKLLIYDASNLETGVPSRFSGSGSGTDFTFTISSLQPEDIATYYCQQYDNLPRTFGQGTKVDIKR
binding result [1]: no binding (tested: 2 ug/ml)
binding result [2]: no binding (tested: 2 ug/ml)
binding result [3]: no binding (tested: 2 ug/ml)
binding result [4]: no binding (tested: 2 ug/ml)
% of binding to wt E2 [5]: 18%
% of binding to wt E2 [6]: 19%
% of binding to wt E2 [7]: 8%
% of binding to wt E2 [8]: 2%

B2: HC-84.23 (antibody, V domains shown)
VH: QVQLVESGAEVKKPGSSVKVSCKASGDTFSSYSIHWVRQAPGQGLEWMGRIIPIVGLVDYAQMFQGRVTISADRSTNTVYMDLSNLRSEDTAYYCARASLGCPNGVCHGPRAADYFDYWGQGTLVTVSS
VL: EIVLTQSPGTVSLFPGDRVTLSCRASQRVPSSSLAWYQQKPGQAPRLLLYGASSRATGIPDRFSGRGSGTDFALSISRLEPEDFAVYYCQQYGSSLITFGQGTRLEIKR
notes: also called HC-23
% of binding to wt E2 [5]: 20%
% of binding to wt E2 [6]: 20%
% of binding to wt E2 [7]: 15%
% of binding to wt E2 [8]: 2%

B3: HC-84.24 (antibody, V domains shown)
VH: QVQLVQSGAEVKKPGSSVKVSCKASGGTFSLNSLSWVRQAPGQGLEWMGTIIPIVGIANYAQKFQGRVTITADKSTGTAYMDLSSLSDDTAVYFCARELYSGTGFFRLEALDYWGQGTLVTVSS
VL: DIQMTQSPATLSLSPGERATLSCRASQSVSSYLAWYQQKPGQAPRLLIYDASNRATGIPARFIAGGSGTDFTLTISSLEPEDFAVYYCQQYGSPQTFGQGTKLEIKR
% of binding to wt E2 [9]: 1%
% of binding to wt E2 [10]: 14%
% of binding to wt E2 [11]: 1%

B4: HC-84.21 (antibody, V domains shown)
VH: QVQLVQSGAEVKKPGSSVKVSCKASGTSFNRYTFAWVRQAPGQGLEWVGTIIPIVGLTNYAEKFQGRVSITADKSTSTTYMELSSLRSEDTAVYFCARKVEFWLGEIAPNKFDVFDLWGQGTMVTVSS
VL: EIVLTQSPDSLAVSLGERATIHCKSSQSIFFSSNSKDYLAWYQQKPGQPPKLLIYWASTRDSGVPDRFSGSGSGTDFTLTITGLQADDAAVYYCQQFDTPQITFGGGTKLEIKR
notes: also called CBH-84.21
% of binding to wt E2 [12]: 15%
% of binding to wt E2 [13]: 28%
% of binding to wt E2 [14]: 20%
% of binding to wt E2 [15]: 35%

B5: HC-84.20 (antibody, V domains shown)
VH: QVQLVQSGSEVKKPGSSVKVSCKASGGTFNIYTVNWVRQAPGQGLEWMGRIIPMLGSADYAQRFQGRVTISADKSTSTAYMELRNLKSEDTAVYYCARSLPREMFFRDDAFDIWGQGTMVTVSS
VL: ETTLTQSPGTLSLSPGERATLSCRASQSVSSNLAWYQQKPGQAPRLLIYGASTRATGIPDRFSGSGSGTDFTLTISRLEPDDFVVYYCQQYGSSPVTFGQGTRLEIKR
binding result [1]: no binding (tested: 2 ug/ml)
binding result [4]: no binding (tested: 2 ug/ml)
% of binding to wt E2 [8]: 6%
% of binding to wt E2 [10]: 26%
% of binding to wt E2 [11]: 26%
% of binding to wt E2 [16]: 20%

From patent US20130084301A1 (published 2013)
